Assay [1] addresses T1, microtubule-associated protein 1A/1B light chain 3B protein (human, UniProt Q9GZQ8 1-120). In words: BLI. A general note: In BLI a coated tip is dipped into the sample, and binding shifts an interference pattern.
Another assay addresses GABARAP (human, UniProt O95166 1-117). In words: BLI.
For assay [2], the target named is T1, microtubule-associated protein 1A/1B …. The assay can be described thus: fluorescence polarisation.

Ends that are not written are not given here.

By Kd is commonly meant the concentration at which binding is half-saturated. A higher Kd goes with weaker binding.

Chain of GABARAP (O95166 whole entry): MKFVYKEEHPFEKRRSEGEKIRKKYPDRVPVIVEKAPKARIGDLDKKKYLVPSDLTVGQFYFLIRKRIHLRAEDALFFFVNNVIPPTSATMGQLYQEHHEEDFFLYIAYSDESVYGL

B1: FYCO1 peptide C1289S (peptide)
peptide: DDAVFDIITDEELSQIQEW
HELM: PEPTIDE1{[O=C1N[C@H]2[C@H](CS[C@H]2CCCCC(=O)[*:2])N1].[bAla].[bAla].D.D.A.V.F.D.I.I.T.D.E.E.L.S.Q.I.Q.E.W.[am]}$$$$V2.0
SMILES: CC[C@H](C)[C@H](NC(=O)[C@H](CCC(N)=O)NC(=O)[C@H](CO)NC(=O)[C@H](CC(C)C)NC(=O)[C@H](CCC(=O)O)NC(=O)[C@H](CCC(=O)O)NC(=O)[C@H](CC(=O)O)NC(=O)[C@@H](NC(=O)[C@@H](NC(=O)[C@@H](NC(=O)[C@H](CC(=O)O)NC(=O)[C@H](Cc1ccccc1)NC(=O)[C@@H](NC(=O)[C@H](C)NC(=O)[C@H](CC(=O)O)NC(=O)[C@H](CC(=O)O)NC(=O)CCNC(=O)CCNC(=O)CCCC[C@@H]1SC[C@@H]2NC(=O)N[C@@H]21)C(C)C)[C@@H](C)CC)[C@@H](C)CC)[C@@H](C)O)C(=O)N[C@@H](CCC(N)=O)C(=O)N[C@@H](CCC(=O)O)C(=O)N[C@@H](Cc1c[nH]c2ccccc12)C(N)=O
Regarding B1, in assay [1], the Kd was 0.33 µM.

B2: biotinylated K1 peptide (peptide)
peptide: DATYTWEHLAWP
HELM: PEPTIDE1{[O=C1N[C@H]2[C@H](CS[C@H]2CCCCC(=O)[*:2])N1].[bAla].[bAla].D.A.T.Y.T.W.E.H.L.A.W.P.[am]}$$$$V2.0
SMILES: CC(C)C[C@H](NC(=O)[C@H](Cc1c[nH]cn1)NC(=O)[C@H](CCC(=O)O)NC(=O)[C@H](Cc1c[nH]c2ccccc12)NC(=O)[C@@H](NC(=O)[C@H](Cc1ccc(O)cc1)NC(=O)[C@@H](NC(=O)[C@H](C)NC(=O)[C@H](CC(=O)O)NC(=O)CCNC(=O)CCNC(=O)CCCC[C@@H]1SC[C@@H]2NC(=O)N[C@@H]21)[C@@H](C)O)[C@@H](C)O)C(=O)N[C@@H](C)C(=O)N[C@@H](Cc1c[nH]c2ccccc12)C(=O)N1CCC[C@H]1C(N)=O
In the assay with GABARAP, B2 came in with a dissociation constant (Kd) of 0.39 µM. This lies in the sub-micromolar range.

Fluorescein-DATYTWEHLAWP [fluorescein-labeled K1 peptide] had a Kd in assay [2] of 1.2 µM. In other words, the single-digit micromolar range.

The record behind these values is paper PMC7872222 (Chembiochem : a European journal of chemical biology, 2020).
